Test results: publication PMC9463443

Biological target: CCANdeltaCT (CENP-LN, CENP-HIKM, CENP-OPQUR; no CENP-C, no CENP-TWSX) (Homo sapiens, UniProt Q8N0S6;Q96H22;Q9H3R5;Q92674;Q9BS16;Q9NSP4;Q9BU64;Q6IPU0;Q7L2Z9;Q71F23;Q13352 …)
Test: EMSA; 300 mM NaCl; EMSA: 20 mM HEPES-Na pH 7.5, 300 mM NaCl, 0.5 mM TCEP, 10 min on ice, 1% agarose in 0.5x TAE; SEC: Superose 6 (analytical SEC buffer not given in the material)
Settings: protein: recombinant; tags: His6 C-term on CENP-N and CENP-Q; copies: 1;1;1;1;1;1;1;1;1;1;1; blunt

B1: 147 bp DNA (Widom 601) (dsDNA)
DNA 1: ATCGAGAATCCCGGTGCCGAGGCCGCTCAATTGGTCGTAGACAGCTCTAGCACCGCTTAAACGCACGTACGCGCTGTCCCCCGCGTTTTAACCGCCAAGGGGATTACTCCCTAGTCTCCAGGCACGTGTCACATATATACATCCGAT
DNA 2: ATCGGATGTATATATGTGACACGTGCCTGGAGACTAGGGAGTAATCCCCTTGGCGGTTAAAACGCGGGGGACAGCGCGTACGTGCGTTTAAGCGGTGCTAGAGCTGTCTACGACCAATTGAGCGGCCTCGGCACCGGGATTCTCGAT
  binding result: binds
